Reference: US20220306715A1

Assays:
[1] = biological target: interleukin-6 (IL-6) receptor; test: cell-based or functional assay
anti-IL-6ST antibody = test: sandwich ELISA on the MSD platform; capture: plate-bound anti-IL-6ST antibody; detection: anti-IL-12A antibody

Substance	EC50 of induction of apoptosis in IL-6 dependent DS-1 cells cultured 24 hours with IL-6 (caspase 3/7 luciferase assay) [1]	EC50 (read off the curve) (anti-IL-6ST antibody)
tocilizumab (antibody)	317 nM	–
mIL-6R-Fc-IL-35 chimeric protein (from UniProt Q00560 23-617; P43431 23-215; P22272 20-364; O35228 19-228) (Fc fusion)	–	0.7 µg/mL
